Reference: patent US20080220446A1, “Method for Detecting and/or Removing Protein and/or Peptide Comprising a Cross-Beta Structure From an Aqueous Solution Comprising a Protein” (priority 2005, published 2008)

How the values were obtained:
[1] = Thioflavin T fluorescence of protein solutions; format: physicochemical; details: initial, compared with native β2GPI purified from plasma
Protocol: Fluorescence of ThT—protein/peptide adducts was measured as follows. […] Fluorescence was measured at 485 nm upon excitation at 435 nm. Background signals from buffer, buffer with ThT and protein/peptide solution without ThT were subtracted from corresponding measurements with protein solution incubated with ThT. Regularly, fluorescence of Aβ was used as a positive control, and fluorescence of FP10, a non-amyloid fibrin fragment^16, was used as a negative control. Fluorescence was measured in triplicate on a Hitachi F-4500 fluorescence spectrophotometer (Ltd., Tokyo, Japan).
Formulated protein therapeutics were obtained from the local hospital pharmacy and were used as supplied by the manufacturers. […] Lyophilized therapeutics were dissolved according to the manufacturers recommendations. GH, zinc-insulin, Cealb and gelatin were stored at −20, 4, room temperature, 37 and 65° C. Other protein therapeutics were only kept at 4° C., and assayed for the presence of cross-β structure at shown time points. Enhancement in fluorescence of ThT and Congo red was measured with all formulated protein therapeutics. […]
ThT fluorescence of β2GPI was measured as follows. […] In the ThT fluorescence assay, fluorescence of β2GPI in buffer, of CL or DXS500k in buffer, of buffer and ThT alone, and of β2GPI-CL adducts and β2GPI-DXS500k adducts, with or without ThT, was recorded as described above (section ThT fluorescence). In addition, TEM images were recorded with CL, β2GPI from human plasma, with or without CL, and with recombinant β2GPI, as described^5.
(§1) To prepare structurally altered ovalbumin (OVA) with amyloid cross-β structures, purified OVA (Sigma, A-7641, lot 071k7094) was heated to 85° C. […] Native OVA (nOVA) and heat-denatured OVA (dOVA) were tested in the ThT fluorescence assay and in the Plg-activation assay. In the fluorescence assay and in the Plg-activation assay, 25 and 100 μg ml^−1 nOVA and dOVA were tested, respectively. […]
MSA (#126674, Calbiochem) was dissolved in 8 M urea, 100 mM Tris-HCl pH 8.2, at 10 mg ml^−1 final concentration. […] The presence of aggregates or fibrils was analyzed using TEM. […]

[2] = molecular target: tPA (Homo sapiens, UniProt P00750); experiment: Plasminogen-activation assay (tPA activation, S-2251); format: biochemical; details: β2GPI preparations, 100 μg ml^−1
Protocol: Plasmin (Pls) activity was assayed as described^16. Peptides and proteins that were tested for their stimulatory ability were regularly used at 100 μg ml^−1. […] Chromogenic substrate S-2251 (Chromogenix, Instrumentation Laboratory SpA, Milano, Italy) was used to measure Pls activity. Conversion of zymogen factor XII (#233490, Calbiochem, EMD Biosciences, Inc., San Diego, Calif.) to proteolytically active factor XII (factor XIIa) was assayed by measurement of the conversion of chromogenic substrate Chromozym-PK (Roche Diagnostics, Almere, The Netherlands) by kallikrein. Chromozym-PK was used at a concentration of 0.3 mM. […] The conversion of Chromozym-PK was recorded kinetically at 37° C. for at least 60 minutes. […]
Formulated protein therapeutics were obtained from the local hospital pharmacy and were used as supplied by the manufacturers. […] Enhancement in fluorescence of ThT and Congo red was measured with all formulated protein therapeutics. […]
as §1

Sequence of tPA (P00750 36-562): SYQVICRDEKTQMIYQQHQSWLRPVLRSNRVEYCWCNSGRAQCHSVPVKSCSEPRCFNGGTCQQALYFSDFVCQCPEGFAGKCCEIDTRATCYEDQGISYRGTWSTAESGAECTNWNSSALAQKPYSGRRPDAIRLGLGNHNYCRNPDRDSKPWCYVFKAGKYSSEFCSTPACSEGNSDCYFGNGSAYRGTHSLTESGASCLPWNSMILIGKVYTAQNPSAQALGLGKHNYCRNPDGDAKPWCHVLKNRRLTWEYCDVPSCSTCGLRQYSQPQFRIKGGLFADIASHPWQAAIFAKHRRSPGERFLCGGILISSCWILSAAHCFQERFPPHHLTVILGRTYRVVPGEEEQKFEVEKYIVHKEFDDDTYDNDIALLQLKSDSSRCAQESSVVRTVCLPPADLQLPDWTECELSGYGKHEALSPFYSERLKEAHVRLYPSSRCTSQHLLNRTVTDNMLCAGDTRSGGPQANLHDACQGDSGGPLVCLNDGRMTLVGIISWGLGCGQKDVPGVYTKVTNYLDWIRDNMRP

B1: recombinant β2GPI: recombinant human β2-glycoprotein I made using insect cells (protein)
chain: GRTCPKPDDLPFSTVVPLKTFYEPGEEITYSCKPGYVSRGGMRKFICPLTGLWPINTLKCTPRVCPFAGILENGAVRYTTFEYPNTISFSCNTGFYLNGADSAKCTEEGKWSPELPVCAPIICPPPSIPTFATLRVYKPSAGNNSLYRDTAVFECLPQHAMFGNDTITCTTHGNWTKLPECREVKCPFPSRPDNGFVNYPAKPTLYYKDKATFGCHDGYSLDGPEEIECTKLGNWSAMPSCKASCKVPVKKATVVYQGERVKIQEKFKNGMLHGDKVSFFCKNKEKKCSYTEDAQCIDGTIEVPKCFKEHSSLAFWKTDASDVKPC
Question: With B1 as the molecule, how does the ThT fluorescence signal [1] read?
Answer: The ThT fluorescence signal was “higher ThT fluorescence signal than native β2GPI purified from plasma”.

Question: And the “stimulation of tPA-mediated conversion of Plg to Pls” value [2]?
Answer: The value was “stimulate tPA-mediated conversion of Plg to Pls”.
